From patent publication US20220119534A1 (DRAGONFLY THERAPEUTICS, published 2022) come the findings set out here.

Experiment [1] concerns the target T1, Human CD16a V158 (FcγRIIIa V158) (human, UniProt P08637 17-208, biotinylated).
T1 construct: Bought recombinant receptor; also called hCD16aV; hFcγRIIIa V158
Put plainly: SPR; after pH 8, 40C, 2 wks. In general terms: In SPR one partner is held on a chip, and binding of the other changes the refractive index at the surface.

Experiment [2] concerns the target T2, Human CLEC12A-His (recombinant, K244 WT) (human, UniProt Q5QGZ9 65-265).
T2 construct: Made in house (Dragonfly Tx); also called hCLEC12A; hCLEC12A-His; not shown: His tag
T2 sequence: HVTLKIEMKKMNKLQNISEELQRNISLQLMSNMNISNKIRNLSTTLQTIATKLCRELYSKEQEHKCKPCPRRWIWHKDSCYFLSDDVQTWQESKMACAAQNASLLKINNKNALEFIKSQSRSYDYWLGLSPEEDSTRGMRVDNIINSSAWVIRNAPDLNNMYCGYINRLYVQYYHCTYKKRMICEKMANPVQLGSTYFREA
Put plainly: SPR, untreated CLEC12A, two-state fit (kd1).

The target of experiment [3] is T3, Human CLEC12A expressed on cells (Ba/F3-hCLEC12A, PL21, HL60) (human, UniProt Q5QGZ9 1-265).
T3 sequence: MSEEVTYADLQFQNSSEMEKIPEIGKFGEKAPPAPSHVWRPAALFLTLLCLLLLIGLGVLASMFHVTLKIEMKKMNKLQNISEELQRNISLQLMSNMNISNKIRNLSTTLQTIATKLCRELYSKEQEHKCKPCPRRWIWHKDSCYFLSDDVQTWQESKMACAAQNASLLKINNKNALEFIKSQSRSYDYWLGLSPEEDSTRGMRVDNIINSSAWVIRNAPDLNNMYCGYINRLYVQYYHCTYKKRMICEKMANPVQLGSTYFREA
Put plainly: cell-based or functional assay.

Experiment [4] has as its target T2, Human CLEC12A-His (recombinant, K244 WT). Nature of the experiment: SPR, untreated CLEC12A, two-state fit (ka1).
Procedure: (§1) Briefly, human Fc specific antibodies were covalently immobilized at a density ˜8000-10000 resonance units (RU) on carboxy methyl dextran matrix of a CM5 biosensor chip via amine-coupling chemistry to create an anti-hFc IgG chip. […] Association was monitored for 300 seconds and dissociation was monitored for 600 seconds. Surfaces were regenerated between cycles with three pulses of 10 mM glycine-HCl, pH 1.7 injected for 20 seconds at 100 μl/min. HBS-EP+ (1×) with 0.1 mg/ml BSA was used as running buffer throughout the experiment. Experiments were performed at physiological temperature of 37° C. To obtain kinetic rate constants and overall binding affinity, double-referenced data were fit to a two-state kinetic model using Biacore 8K Insight Evaluation software (Cytiva).
In experiment [5] the target is T4, De-glycosylated human CLEC12A (human, UniProt Q5QGZ9 65-265, treated with PNGaseF (N-linked glycans removed)).
T4 construct: Same recombinant antigen as m2 after PNGaseF; also called De-glycosylated CLEC12A
T4 sequence: T2 sequence
Put plainly: SPR, two-state fit (kd1).
Procedure: as §1

For experiment [6], the target named is T5, De-sialylated human CLEC12A (human, UniProt Q5QGZ9 65-265, treated with neuraminidase (terminal sialic acids removed)).
T5 construct: Same recombinant antigen as m2 after neuraminidase; also called De-sialylated CLEC12A
T5 sequence: T2 sequence
Put plainly: SPR, two-state fit (kd1).
Procedure: as §1

T1 sequence (P08637 17-208 F176V limits assumed): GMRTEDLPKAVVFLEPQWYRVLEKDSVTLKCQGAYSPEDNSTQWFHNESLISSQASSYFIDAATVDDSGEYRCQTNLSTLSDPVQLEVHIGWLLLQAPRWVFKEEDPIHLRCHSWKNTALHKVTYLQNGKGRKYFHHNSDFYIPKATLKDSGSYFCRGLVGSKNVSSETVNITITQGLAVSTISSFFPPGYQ

B1: AB0089 TriNKET (bispecific antibody, human IgG1, kappa)
chain: QLQLQESGPGLVKPSETLSLTCTVSGFSLTNYGLHWIRQPPGKCLEWIGVIWVGGATDYNPSLKSRVTISVDTSKNQFSLKLSSVQAADTAVYYCAKGDYGDTLDYWGQGTLVTVSSGGGGSGGGGSGGGGSGGGGSDIQMTQSPSSLSASVGDRVTITCHASQNINFWLSWYQQKPGKAPKLLIYEASNLHTGVPSRFSGSGSGTDFTLTISSLQPEDFATYYCQQSHSYPLTFGCGTKLEIKGSDKTHTCPPCPAPELLGGPSVFLFPPKPKDTLMISRTPEVTCVVVDVSHEDPEVKFNWYVDGVEVHNAKTKPREEQYNSTYRVVSVLTVLHQDWLNGKEYKCKVSNKALPAPIEKTISKAKGQPREPRVYTLPPCRDELTKNQVSLTCLVKGFYPSDIAVEWESNGQPENNYKTTPPVLVSDGSFTLYSKLTVDKSRWQQGNVFSCSVMHEALHNHYTQKSLSLSPG
heavy: EVQLVESGGGLVKPGGSLRLSCAASGFTFSSYSMNWVRQAPGKGLEWVSSISSSSSYIYYADSVKGRFTISRDNAKNSLYLQMNSLRAEDTAVYYCARGAPIGAAAGWFDPWGQGTLVTVSSASTKGPSVFPLAPSSKSTSGGTAALGCLVKDYFPEPVTVSWNSGALTSGVHTFPAVLQSSGLYSLSSVVTVPSSSLGTQTYICNVNHKPSNTKVDKKVEPKSCDKTHTCPPCPAPELLGGPSVFLFPPKPKDTLMISRTPEVTCVVVDVSHEDPEVKFNWYVDGVEVHNAKTKPREEQYNSTYRVVSVLTVLHQDWLNGKEYKCKVSNKALPAPIEKTISKAKGQPREPQVCTLPPSRDELTENQVSLTCLVKGFYPSDIAVEWESNGQPENNYKTTPPVLDSDGSFFLYSWLTVDKSRWQQGNVFSCSVMHEALHNHYTQKSLSLSPG
light: DIQMTQSPSSVSASVGDRVTITCRASQGISSWLAWYQQKPGKAPKLLIYAASSLQSGVPSRFSGSGSGTDFTLTISSLQPEDFATYYCQQGVSFPRTFGGGTKVEIKRTVAAPSVFIFPPSDEQLKSGTASVVCLLNNFYPREAKVQWKVDNALQSGNSQESVTEQDSKDSTYSLSSTLTLSKADYEKHKVYACEVTHQGLSSPVTKSFNRGEC
notes: F3' format heterodimer of three chains; human IgG1 Fc with EW-RVT and Y349C/S354C mutations; also called AB0089 Lot AB0089-002; CLEC12A TriNKET AB0089
B1 gave a Kd in experiment [1] of 350 nM. The off-rate constant (koff) in experiment [1] is 0.0279 s⁻¹; in experiment [2], 0.0398 s⁻¹; in experiment [5] it was 0.00633 s⁻¹; in experiment [6] it was 0.0329 s⁻¹. Also, the kon in experiment [1] worked out at 79400 M⁻¹ s⁻¹; in experiment [4] it was 1.63e+07 M⁻¹ s⁻¹. The “EC50, rested NK cell lysis of PL21 cells (mean of six donors)” value in experiment [3] turned out to be 0.25 nM.

The Kd is the equilibrium constant for the complex coming apart. A lower Kd goes with tighter binding. As usually defined, the koff is a measure of how fast the partners let go of each other. For orientation: kon means the second-order rate constant of association.
